Experimental data from a protein production outcome set (Wang et al. 2014).

Test: label from the status in PepcDB records
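Note: failed if final PepcDB status was selected cloned or expressed and not failed if soluble or beyond.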

Sequence	protein production
MILLIMNTDDFQFFIRVADCGSLSKAAQEANISVSVASQRIQRLESTLKLRLFYRTTRKITLTDEGRKLLDFGRYWLDDFITLKDTLTARDKPLTGNLRVTTSATFGIKILTKVIANFALLHPTLNIYLDLNDQNIDLIEHGMDLAIRIGKLNDSSLVAKPLMTNHRLICAAPSYLNQYGMPHSIEDLQQHRCILQQHQNGLTDHWQLIDQKRTVVDVHLKAYFTTNSGEAIRQAALQGLGISNHSRWHVADDLEQGHLIELLPEYQIEPTTIYAVFPNRQFRQPKTELFLSYLQNYFKHEYPWNIRKN	failed
MILMHPKGLIKRDDIIYLSIFIVVFLIALRNYMISPPYTLGDTTILPSTNPGLYTPSATIQYYLSLLIGENNLIKTLNFLAFIIAPISIYFTLGRKGDFFKRLILPLIFTLNPISISIFYDGNGEGILLVYSLQPLVYYLTYKMLYEVKNRLKYLIYLSIVEVVGQIFFFQMFLFSLFFQLPFILLSIKERKYLFLVYPILADLLGFLSELSWEVYLYIGVVPSVLVSPSNTLVRLGLAYYSTIVSALLFAIVITTAFIYRNKYALATLTSVGILLVIYAILQNFRFDIPVISALLAAITTFQTKVYLLSFGLLDLSLFYLKRTREFIIPLLSLLLIVLLVNTGGLQATTYSIFSFKPQPMPSWYYELYDYLSQNNPNNVYSLATQYQYLQYLPGFSGFIYDTSFIHNLTNPFYGMKYLISTSQMNYTGLRLVKTFGPVLVYYNENFTGLVHYLNGSPVSNYSISDMEIRIYDGNPPFVVSLPYSEYWTSAENYNGFLELTTNISQNSLTSLVHELFFVSLFFLILPFILLILEKTPMKTLIVGR	failed
MILNIVTIVSNFIFIALFYQLFVDLFDWSKMIKMSPQNISKLKVFILLISIVGGYVVSHFLLEVIQLCQSIFWALQ	failed
MILTPLALTPDHDIPGPVLTELTALYASHRAFHALSGDFPDPEDIRPEQVATALADELARPGAEVLLARDAGRLVGVAVTLARHPDPSDPDPWIGLLMVDAGLTRQGHGSRLVSLVEDRFRAAGRTAVRLAVLDGNTDALSFWTALGYRVLDHRRDLGAERPCTVLRRELASDKPRTPRRAARVAVLDPEGAVFLLRYDNVEVGVHWAMPGGGLEADENPREGALREVREETGWTDLEPGPLLCTWEHDFTHLSVGPVRQYEHIYVAQGPRREPTGPHLAAAHAADGILTWRWWSRAELAEAPEPLWPPDLALLLETFGGREG	failed
MILVFLDNMASIKDLNLIDEINDSSNLKLINDRLKLLFWTKNPEITDEENKKKYLDFLNEYWDTLRAYGAGDLELFPDKINYLTLILAANSKNHNIYIKKLAEKYAEKIPIEDGDSKINIWDFIDVAANSRNNDLHLERMILEGDTVLLNQKNQSIYNFEKIRLKLKNYVEKVRNAEMPKEIKDLLVKKSEEAFEGINIGYNIESGIKVSTKEYSGEIPEDWHPPCMREILNDILSGGSPSHYARRSFVVYRFVSQFDPNLRPIEEGIITNRSAQDIATEEQIERFLDEIINIFKSVGDFDVEKTKYYISHNIGYKVANHITHCEYCKNWRDDGGKGLGYYCRPDSTCSRKDIIHPLDYLCHNINRHVKKSELEHHHHHH	failed
MIMARTSNIFARVEPEVKEQAEQVLEQLGIPMSSAVSMFLKQVVLQRGIPFEMKLPKDTPPSYSSLTKEQFNAEIEKGMLDIEAGRTYPMKSVEEEMKRDYGLLEHHHHHH	not failed
MIMASSAAASISMITLRNLSRNHQSHQSTFLGFSRSFHNQRISSNSPGLSTRARSTTSSTGGFFRTICSSSSNDYSRPTKIQELNVYEFNEGDRNSPAVLKLGKKPDQLCLGDLVPFTNKLYTGDLTKRIGITAGLCVLIQHVPEKKGDRFEASYSFYFGDYGHISVQGPYLTYEDTFLAITGGSGVFEGAYGQVKLRQLVYPTKLFYTFYLKGVAADLPVELTGKHVEPSKEVKPAAEAQATQPGATIANFTN	failed
MIMHIPKSTYYHKWFIGATLVVPVLPLAAQTSPNLVFIMADQYRGDALGCLGKEPVKTPCLDHLASEGVLFTNAVSSYPVSSPARAMLMTGMYPLHNKVTGNCNSQTAPYGVELPQEARCWSDVLKDMNYRTGYIGKWHLDSPYKPYVDTYNNRGKVAWNEWCPPERRHGFEYWTAYGTYDYHLKPMYWDTTAPRDSFYYVNQWGPAYEADKAIEYIQTQKENKQPFALVVSMNPPHTGYELVPDKYKALYKDIDVEALCAHRPDIPAKGTEMGNYFRNNIRNYYACITGVDEQVGRIIETLKSNGLFENTIIVFTSDHGICMGAHNNAGKDIFYEEAMRIPMIISWPAKIKPRKDDHLMIAFADLYPSLLSLMGFRKEIPETVQTFDLSRHILGKSKKEVVQPYYYVQFDNHATGYRGLRTSTHTFAVHATNGKIDETVLFDRTKDPYQMDNIAGQSPRLVRQFNKQLKAWLLHTNDSFAHYLETVTKLEHHHHHH	not failed
MIMKISMAMCKQPLPPSPTLDFPPARFGPNMLTLNPYGPKDKVVVIMGATGTGKSRLSVDIATRFRAEIINSDKIQVHQGLDIVTNKITSEESCGVPHHLLGVLPPEADLTAANYCHMANLSIESVLNRGKLPIIVGGSNSYVEALVDDKENKFRSRYDCCFLWVDVALPVLHGFVSERVDKMVESGMVEEVREFFDFSNSDYSRGIKKAIGFPEFDRFFRNEQFLNVEDREELLSKVLEEIKRNTFELACRQREKIERLRKVKKWSIQRVDATPVFTKRRSKMDANVAWERLVAGPSTDTVSRFLLDIASRRPLVEASTAVAAAMERELSRCLVA	failed
MIMSVCLPWLARCRRFLIVSLAFAMLLLGIWGTLPFSLSDHGTAIAALEDDRYDGNIFVVYAGNGSLVPPRLNLRESFERKLPVILVYYLDDSKDCKQYAFIVSRMQEFYGRVASIIPVSVDSIPDQKRFRRDEPGYYYSGGVPQTVILDKSGKKIFDAQGALKFEVVDDVLRDLFDLLPRSESMELKQRTYNEFNSELVD	failed
MINKKTTSENRRILQIAVPSIISNITVPLLGLIDVTIVGHLGSPAYIGAIAVGGMLFNIIYWIFGFLRMGTSGMTSQAYGQHDLNEINRLLIRSVGVGLFIALCLLILQYPILNAAFTLIQTTEEVKQLATTYFYICIWGAPAMLGLYGFAGWFIGMQNSRFPMYIAITQNIVNIIASLSFVYLLDMKVAGVAAGTLIAQYAGFFMAILLYMRYYSTLRKRIVWKDIIQKQAMYRFFRVNRDIFFRTLCLVIVTMFFTSAGAAQGEVVLAVNTLLMQLFTLFSYIMDGFAYAGEALAGRYIGARNQTALRNTVNHLFYWGIGLSAAFTLLYAIGGKEFLGLLTNDVSVISSSDTYFYWALAIPLTGFSAFLWDGVFIGATATRQMLYSMLVASVSFFMIYYAFHNLLGNHALWLAFITYLSLRGIVQTFIGREIVKKAI	failed
MINKTLTVTLTSIAALAGLSGLANAQEYTNSTHTTSQQSNTYNSQVEQETNLGLTNKDIVKVKDGDTLYQIALSHHLSLEQLYNFNPGVTALIHPGDLIAVSEKGAAKLENKEINYAQTYAETTAFNQSDVVAQSVSASTTNVTGYNIVPTSAPTNTMHDSYHSSVNTPVSYQHVTTANQGNRYSFGNCTYYAFDRRQQLGRSIGSYWGNANNWAYSAKNAGLTVDNRPEVGAIFQTTAGYYGHVGVVEHVNQDGSVYVSEMNWNGHYNRVTNRTITNTSSYNFIH	failed
MINKVLLEGQRITRSPQVKQHACGASFFLVVLLLIGGLLYSTISWMWDEQRLPLSKLVLQGDLHYVSALDVQRVLARLDHIGTFMSQDINVLQESVQSIPWVSHASIRKQWPDTIKVYLTEYQVEALWNANALLDKNGTVFYGDIARVNGEYVKLYGPDGTAPQVLKAWRDYNPKFAQLGLNISSLVLNDRRAWQIILDNGIRLELGKESLEERISRFFLLYKQLGNKAEQVSYIDLRYDTGAAVGWFPEQELTQEKNDD	failed
MINMKVAISMDVDKISNSFEDCKYFLIVRIDDNEVKSTKVIFNDESGKKSIVKENVNAIICKNISEENYKKFSKKIEIYHAEGDDVDKNISLFIEGELSKISNP	not failed
MINQATSPAAPISLTTKGLRWANLAFMLYLLLLAVAMVGSGFKWATGDQAKVLFEFASHPIAGLMIGLVATALIQSSSTVTSIIVGLVAGGLPVETAIPMVMGANIGTTVTNTLVSLGHMRCKEEFRRAFASATIHDFFNLLAVLIFLPLEMMFGILEKVSHWLVSPLLATGDMSMKGFDFIKPITKPVITGLETQLSVLGNTFGGVALIVLGIATIFVAITVMGKLMKSLMVGRAREILQNAIGRGPLHGIASGTVVTVLVQSSSTTTSLMVPLVGSGVLKVREIYPFTLGANIGTCITALLAATAVSGEFAVFALQIALVHLSFNLMATVLIYGIPFLRELPIKGAELISTWACKSKMVVVSYLLGVFVVIPGSILALTA	failed
MINSVGVVRKEAENCNCLQVFFVSGSFKVDSVEAKKKEENFRETLRDMANSKYEYVKSFELEDEVMLPNLMVVRIDGRDFSRFSQVHEFEKPNDETALNLMNSCSAAVLEEFPDIIFAYGYSDEYSFVFKKTSRFYQRRASKILSLVASFFAAVYVTKWKEFFPQRKLLYAPSFSSKVVSCASAEVLQAYLAWRQQDCHANNQYDTCFWMLVKSGKSVSETQEILKDTQKQQKNELLFQKFGINYKTLPELFRQGSCLFKKKVEETVKHDENGNPVKRLRRKAVFVHSENIAGRSFWNEQPSLYNDLGHFTKDIGKIEPDFIRSFQFENKLLPLTWVVVRIDGCHFHRFSDVHEFEKPNDEQALKLMNSCAVAVLEEFEDIHFAYGVSDEYSFVLKKESELYKRQSSKIISAVASFFTSTYVLQWGEFFPHKELKYPPSFDGRAVCYPTYNILLDYLAWRQVDCHINNQYNTCFWMLVKSGKNKTQSQDYLKGTQTREKNELLSRQFGIEYNSLPVIFRMGSSVFRLKEAENGVVSGKKLEGEVVVDHCNIIERCFWEEHLHILSYS	failed
MINVLILGAASQISRFLIPDLLADKTVYLTLFARQAPQRLGQYAGESRVTLVDGDWNQEADIEQVMSNQDIVFLASSSLVGNQNVVTVMKHTGVQRLIVAGGLGIDDEVAGKFGNWNTRMMGDYTPYKQAAKVILDSGLNTTYLRMTWLYDENGNEKYQIVPEGQPLRGTQVTRQAVAKLVTAIVRQPSLYQYANIGVVEPGTEWDKPSFYLEHHHHHH	failed
MIPFPESRLAAQMSFVVEIDKLKTILRQTLLTDSSRRENDAEHSWHIATMAFLLAEYADEAVQIGRVARMLLIHDIVEIDAGDTFIHDEAGNEDKEERERKAAARLFGLLPPDQAAEYSALWQEYEARETADARFADALDRLQPLLHNFETEGGTWKPHGVTRAKVDKLLPRIEAGSKRLGAYARALVDEAVRRGYLAP	not failed
MIPFTIEYIFVLIGAFLLSIILTPIIRVISLKVGAVDKPNARRINKVPMPSSGGLAIFLSFVVTTLFFMPMAASRHFIEVSYFHYILPVIIGGLVVTTTGFIDDIFELRPRYKMLGIIIAAIIIWKFTHFRFDSFKIPIGGPLLEFGPILTFFLTVLWIISITNAINLIDGLDGLVSGVSIISLATMAVVSYFFLPKIDFFLTLTIVILIASIVGFFPYNYHPAIIYLGDAGALFIGFMIGVLSLQGLKNSTAVAVITPVIILGVPILDTAVAIVRRKLSGKKISEADKMHLHHRLLSMGFTHRGAVLVVYGIAIIFSLIALLLNVSSRIGGIFLLLALLLAMEIFIEGLNIWGENRTPLFNLLKFIGNSDYRQSVIAKYSDKHQK	failed
MIPIHPVGGSQTPASSTAAAGTGDAVTSVFLQPGRISLPASPPLSLYVHVPWCVRKCPYCDFNSHAEPEAGIPEDRFLAAIRQDLEAALPMVWGRRVHTIFIGGGTPSLLSARGLDTLLSDIRMLLPVDADAEITMEANPGTFEAERFRSYRASGVNRLSIGIQSFNDTHLQALGRIHSAAEARAAIDIARAHFDNINLDLMFALPGQTLAECEADVEAALSFGTSHVSLYHLTLEPNTYFAKHPPALPDDDTAFAMQDWIHARLAAAGYEHYEVSAYARPGKRCKHNLNYWQFGDYLGIGPGAHGKLSFPHRVIRDMRHKHPETYLRQAETAGGATVVQEQREVDAADLPFEFMLNALRLTDGFPVTLFQERTGLPLRGIERELDAAERRGLLVHDHATIRPTELGQRFLNDLQALFLADDEN	failed
